This note sets out measurements from patent US7893197B2, “Relaxin-3 chimeric polypeptides and their preparation and use” (Janssen Pharmaceutica N.V., priority 2005, dated 2011).

In one assay the target is T1, LGR8 (Homo sapiens, UniProt Q8WXD0).
T1 construct: Human LGR8 cDNA containing the complete coding region was PCR amplified; expressed in transfected cells
Kind of assay: Radioligand competition binding, [125I]-INSL3, live transfected COS-7 cells. The settings on record: highest concentration 1 μM. An excerpt: FIGS. 3A-3D illustrate the characterization of various relaxin-3 chimeric polypeptides using radioligand binding assays. Different relaxin-3 chimeric polypeptides were characterized for their receptor binding properties for human recombinant GPCR135 (FIG. 3A), GPCR142 (FIG. 3B), LGR7 (FIG. 3C), or LGR8 (FIG. 3D). For GPCR135, GPCR142, and LGR7, [^125I]-relaxin-3 was used as the radioligand at a final concentration of 100 pM. Different unlabeled peptides were used in the binding assay as the competitors. For LGR8, [^125I]-INSL3 was used as the radioligand at a final concentration of 100 pM. Different unlabeled peptides including relaxin-3 chimeras at various concentrations were added to the binding assay as the competitors. Data represent mean±SEM (n=3).
Radioligand binding assays for LGR7 and LGR8 were performed using live COS-7 cells transiently transfected with LGR7 or LGR8 expression plasmids in 15-cm culture dishes using LipofectAmine (Invitrogen). Two days after transfection, the transfected cells were detached from the 15-cm culture dished using phosphate buffered saline (PBS) plus 10 mM EDTA, seeded into 96-well opaque poly-D-lysine coated culture plates and used for radioligand binding assays. For LGR7, [^125I]-relaxin-3 was used as the tracer. For LGR8, [^125I]-INSL3 (specific activity: 2200 Ci/mmol) was used as the tracer. [^125I]-labeled tracer was added in binding reactions at a final concentration of 100 pM in binding buffer containing DMEM plus 50 mM HEPES and 1% bovine serum albumin. Unlabeled relaxin-3 and relaxin-3 chimeric polypeptides were added at various concentrations to the binding assays as the competitors, as indicated (FIG. 3). The binding mixtures were incubated at room temperature for 1 hour. The unbound radioligand was removed by aspiration of the binding buffer. The cells were washed with PBS. The bound radioligand was counted in a scintillation counter (TopCount/NTX). The results were analyzed using Prism 3.0 program (Graphpad, San Diego, Calif.). The IC50 values represent the ligand concentrations that inhibit 50% of the maximum specific binding.
A general note: In a radioligand displacement assay an active substance lowers the binding of a labelled ligand.

For another assay, the target named is T2, LGR7 (Homo sapiens, UniProt Q9HBX9).
T2 construct: Human LGR7 cDNA containing the complete coding region was PCR amplified; expressed in transfected cells
T2 sequence (Q9HBX9 1-757): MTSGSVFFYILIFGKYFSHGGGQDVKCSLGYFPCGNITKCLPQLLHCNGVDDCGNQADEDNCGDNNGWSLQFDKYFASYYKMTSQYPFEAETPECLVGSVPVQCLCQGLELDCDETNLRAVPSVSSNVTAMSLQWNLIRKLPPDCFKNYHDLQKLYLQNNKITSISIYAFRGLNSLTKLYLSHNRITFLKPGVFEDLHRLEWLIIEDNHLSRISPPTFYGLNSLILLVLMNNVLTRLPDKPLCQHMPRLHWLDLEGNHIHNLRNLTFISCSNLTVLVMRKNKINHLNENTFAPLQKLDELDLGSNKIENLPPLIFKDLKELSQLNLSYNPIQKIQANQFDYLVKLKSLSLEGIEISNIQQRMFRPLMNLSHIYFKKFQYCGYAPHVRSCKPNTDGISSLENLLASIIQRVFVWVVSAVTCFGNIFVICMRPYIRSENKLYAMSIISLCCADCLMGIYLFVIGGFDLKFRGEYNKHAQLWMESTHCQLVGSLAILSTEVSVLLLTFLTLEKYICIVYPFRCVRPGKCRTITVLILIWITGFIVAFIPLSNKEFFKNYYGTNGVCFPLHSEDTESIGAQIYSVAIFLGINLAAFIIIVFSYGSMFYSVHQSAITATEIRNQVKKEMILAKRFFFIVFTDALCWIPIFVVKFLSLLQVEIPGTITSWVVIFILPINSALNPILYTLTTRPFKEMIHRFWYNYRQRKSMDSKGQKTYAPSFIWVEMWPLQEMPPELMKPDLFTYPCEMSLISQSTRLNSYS
Briefly: Radioligand competition binding, [125I]-relaxin-3, live transfected COS-7 cells.

The target in assay [1] is T3, GPCR135 (Homo sapiens, UniProt Q9NSD7).
T3 construct: expressed in transfected cells
T3 sequence (Q9NSD7 1-469): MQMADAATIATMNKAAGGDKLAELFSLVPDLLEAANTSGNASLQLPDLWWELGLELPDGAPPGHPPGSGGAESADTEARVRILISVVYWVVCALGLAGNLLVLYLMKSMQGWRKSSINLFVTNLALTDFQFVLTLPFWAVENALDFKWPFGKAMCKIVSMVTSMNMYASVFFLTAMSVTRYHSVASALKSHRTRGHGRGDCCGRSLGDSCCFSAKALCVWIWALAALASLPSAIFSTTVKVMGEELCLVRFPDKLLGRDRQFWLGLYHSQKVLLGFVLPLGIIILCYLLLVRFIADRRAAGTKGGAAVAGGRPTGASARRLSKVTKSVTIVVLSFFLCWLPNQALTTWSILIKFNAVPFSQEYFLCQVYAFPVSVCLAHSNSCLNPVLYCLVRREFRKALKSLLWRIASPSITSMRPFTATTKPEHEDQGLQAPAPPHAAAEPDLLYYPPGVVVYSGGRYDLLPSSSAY
Briefly: Radioligand competition binding, [125I]-relaxin-3, membranes of transfected COS-7 cells. The settings on record: for binding / affinity for GPCR135, in words: highest concentration 1 μM.
Experimental: For GPCR135, GPCR142, and LGR7, [^125I]-relaxin-3 was used as the radioligand at a final concentration of 100 pM. Different unlabeled peptides were used in the binding assay as the competitors. […] Different unlabeled peptides including relaxin-3 chimeras at various concentrations were added to the binding assay as the competitors.
Radioligand binding assays for GPCR135 and GPCR142 were performed as previously described (Liu et al., 2003, Journal of Biological Chemistry, 278:50754-50764 and Liu et al., 2003, Journal of Biological Chemistry, 278:50765-50770). Membranes from COS-7 cells transiently transfected with either the GPCR135 expression vector or the GPCR142 expression vector, each described supra, were incubated with [^125I]-relaxin-3 at a final concentration 100 pM in 96-well plates. Peptides for competition binding studies were added to the binding mix (final volume: 200 μl) in binding buffer [50 mM Tris-HCl, pH 7.5, 5 mM EDTA, 1% bovine serum albumin, 0.1% protease inhibitor cocktails (Sigma)]. The binding mixtures were incubated at room temperature for 1 hour, filtered through GFC plates (Packard) pre-saturated with 0.3% Polyethylenimine (Sigma), and washed with cold washing buffer (50 mM Tris-HCl, pH 7.5, 5 mM EDTA). Microscint-40 was added to each well and the bound [^125I]-relaxin-3 was counted in a scintillation counter (TopCount/NTX, Packard).

Assay [2] has as its target T3, GPCR135. Briefly: Inhibition of forskolin stimulated β-galactosidase expression in SK-N-MC/β-gal cells. Format: cell-based.
Experimental: (§1) In FIG. 1A, SK-N-MC/β-gal cells expressing human GPCR135 were stimulated with relaxin-3, relaxin-3 B-chain, porcine relaxin, or INSL3 at various concentrations to inhibit the forskolin stimulated β-galactosidase expression. Forskolin was added to cells at a final concentration of 5 μM to stimulate the β-galactosidase expression. FIG. 1B depicts results for SK-N-MC/β-gal cells expressing human GPCR142 stimulated as in FIG. 1A. In FIG. 1C, SK-N-MC/β-gal cells expressing human LGR7 were stimulated with relaxin-3, relaxin-3 B-chain, porcine relaxin, and INSL3 at various concentrations to induce the β-galactosidase expression. The intracellular β-galactosidase activities were measured by a colorimetric assay using CRGP as the substrate and reading the absorbance at a wavelength of 570 nm. For FIG. 1D, SK-N-MC/β-gal cells expressing human LGR8 were stimulated as in FIG. 1C.
(§2) Different chimeric polypeptides at various concentrations were added to SK-N-MC/β-gal cells expressing human GPCR135 (FIG. 4A) or GPCR142 (FIG. 4B) to inhibit forskolin stimulated β-galactosidase expression. […] In parallel, chimeric polypeptides at various concentrations were added to SK-N-MC/β-gal cells expressing human LGR7 (FIG. 4C) and LGR8 (FIG. 4D) to stimulate β-galactosidase expression. Relaxin-3 and INSL3 were used as positive controls for LGR7 and LGR8, respectively. Intracellular β-galactosidase activity was measured by a colorimetric assay using CRGP as the substrate and reading the absorbance at wavelength of 570 nm. Data represent mean±SEM (n=3).
(§3) In such SK-N-MC/β-gal cells, an increase in intracellular cAMP concentration leads to increased β-galactosidase gene expression, the activity of which is measured using Chlorophenol Red-β-D-Galactopyranoside (CPRG) as the substrate.
(§4) The inventive chimeric polypeptides were each independently tested for their ability to activate either GPCR135, GPCR142, LGR7, or LGR8, respectively, in separate pools of SK-N-MC/β-gal cells (see supra), each pool stably expressing one of the respective receptors, as indicated (FIG. 4).
(§5) Cells were seeded in 96-well tissue culture plate at a density of 30,000 cells/well in MEM plus 10% fetal serum, sodium pyruvate, penicillin, streptomycin, and G418 (400 mg/L). For cells expressing GPCR135 or GPCR142, forskolin was added to cells at a final concentration of 5 μM to stimulate intracellular cAMP accumulation. Different concentrations of each of the inventive polypeptides were then added to the cells to inhibit the forskolin induced cAMP accumulation. For cells expressing LGR7 or LGR8, intracellular cAMP was stimulated with each of the inventive chimeric polypeptides at various concentrations.
(§6) For all cells, after adding the chimeric polypeptides, cells were incubated for 6 additional hours in 37° C. incubator. The media was then aspirated and the β-galactosidase activities measured as previously described (Liu et al., 2001, Molecular Pharmacology, 59:420-426). The results were analyzed by Prism 3.0 software.
For the next assay, the target named is T4, GPCR142 (Homo sapiens, UniProt Q8TDU9, L329S).
T4 construct: expressed in transfected cells
T4 sequence (Q8TDU9 whole entry L329S): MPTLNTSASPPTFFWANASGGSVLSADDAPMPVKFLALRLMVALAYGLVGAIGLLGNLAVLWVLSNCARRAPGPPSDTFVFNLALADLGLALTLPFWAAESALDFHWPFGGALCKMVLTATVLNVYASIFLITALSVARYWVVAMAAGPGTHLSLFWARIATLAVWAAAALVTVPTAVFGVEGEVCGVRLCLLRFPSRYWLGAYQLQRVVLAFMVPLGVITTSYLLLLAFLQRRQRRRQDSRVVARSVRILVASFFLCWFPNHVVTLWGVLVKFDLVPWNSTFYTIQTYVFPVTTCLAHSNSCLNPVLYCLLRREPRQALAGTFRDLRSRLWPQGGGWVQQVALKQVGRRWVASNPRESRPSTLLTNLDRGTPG
The description is as above. Format: cell-based.

The mark [3] stands for this setting: inhibition of 5 μM forskolin stimulated β-galactosidase expression, mean ± SEM, n = 3.
[4] abbreviates: highest concentration tested 1 μM.

T1 sequence (Q8WXD0 whole entry): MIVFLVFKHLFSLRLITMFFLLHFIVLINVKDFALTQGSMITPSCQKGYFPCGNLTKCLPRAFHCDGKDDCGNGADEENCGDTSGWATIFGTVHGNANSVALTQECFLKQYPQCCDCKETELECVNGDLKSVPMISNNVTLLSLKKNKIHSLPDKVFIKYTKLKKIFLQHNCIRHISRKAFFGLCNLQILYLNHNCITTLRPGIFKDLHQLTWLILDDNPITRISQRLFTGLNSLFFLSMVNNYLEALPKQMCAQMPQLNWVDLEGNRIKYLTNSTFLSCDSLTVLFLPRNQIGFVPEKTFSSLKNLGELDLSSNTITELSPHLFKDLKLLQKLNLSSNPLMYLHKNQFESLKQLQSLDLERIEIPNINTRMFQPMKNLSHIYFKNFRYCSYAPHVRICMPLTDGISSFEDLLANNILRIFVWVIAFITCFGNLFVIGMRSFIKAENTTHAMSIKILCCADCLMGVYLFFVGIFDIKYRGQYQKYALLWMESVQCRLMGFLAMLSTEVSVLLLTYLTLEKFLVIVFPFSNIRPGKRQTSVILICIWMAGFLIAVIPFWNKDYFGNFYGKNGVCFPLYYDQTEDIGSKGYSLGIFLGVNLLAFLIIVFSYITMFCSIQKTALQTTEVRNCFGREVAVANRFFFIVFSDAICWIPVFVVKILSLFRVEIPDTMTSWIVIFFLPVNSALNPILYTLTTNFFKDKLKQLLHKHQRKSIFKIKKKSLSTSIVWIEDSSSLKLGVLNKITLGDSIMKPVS
Experimental for GPCR142: as §1, §2, §3, §4, §5, §6
Experimental for LGR7: For GPCR135, GPCR142, and LGR7, [^125I]-relaxin-3 was used as the radioligand at a final concentration of 100 pM. Different unlabeled peptides were used in the binding assay as the competitors. […] Different unlabeled peptides including relaxin-3 chimeras at various concentrations were added to the binding assay as the competitors. Data represent mean±SEM (n=3).
Radioligand binding assays for LGR7 and LGR8 were performed using live COS-7 cells transiently transfected with LGR7 or LGR8 expression plasmids in 15-cm culture dishes using LipofectAmine (Invitrogen). Two days after transfection, the transfected cells were detached from the 15-cm culture dished using phosphate buffered saline (PBS) plus 10 mM EDTA, seeded into 96-well opaque poly-D-lysine coated culture plates and used for radioligand binding assays. For LGR7, [^125I]-relaxin-3 was used as the tracer. […] [^125I]-labeled tracer was added in binding reactions at a final concentration of 100 pM in binding buffer containing DMEM plus 50 mM HEPES and 1% bovine serum albumin. Unlabeled relaxin-3 and relaxin-3 chimeric polypeptides were added at various concentrations to the binding assays as the competitors, as indicated (FIG. 3). The binding mixtures were incubated at room temperature for 1 hour. The unbound radioligand was removed by aspiration of the binding buffer. The cells were washed with PBS. The bound radioligand was counted in a scintillation counter (TopCount/NTX). The results were analyzed using Prism 3.0 program (Graphpad, San Diego, Calif.). The IC50 values represent the ligand concentrations that inhibit 50% of the maximum specific binding.

For the substance “R3/I6: chimeric polypeptide: human relaxin-3 B-chain and INSL6 A-chain; mature polypeptide SEQ ID NO:24 (RAAPYGVRLCGREFIRAVIFTCGGSRWGYSEKCCLTGCTKEELSIAC; Human Relaxin-3/Insulin-like 6 chimeric mature polypeptide)”, the “binding affinity for LGR8, in words” value with LGR8 is recorded as “no binding affinity”. In addition, the “affinity for LGR7” value in the assay with LGR7 (discussion) fell in the range of 10 to 15 nM. In addition, in the assay with GPCR135 [1] (discussion), the “affinity for GPCR135” value is 10 to 15 nM.

For the substance “R3/I5: chimeric polypeptide: human relaxin-3 B-chain and INSL5 A-chain; mature polypeptide SEQ ID NO:23 (RAAPYGVRLCGREFIRAVIFTCGGSRWQDLQTLCCTDGCSMTDLSALC; Human Relaxin-3/Insulin-like 5 chimeric mature polypeptide)”, the “binding affinity for LGR8, in words” value with LGR8 was “no binding affinity”. The “EC50 to activate GPCR135” value with GPCR135 [2] (setting [3]) is “low nanomolar range”. Moreover, the “binding / affinity for GPCR135, in words” value in the assay with GPCR135 [1] is “subnanomolar”. For the same substance, the “EC50 to activate GPCR142” value in the assay with GPCR142 (setting [3]) is “low nanomolar range”.

Take “R3/I4: chimeric polypeptide: human relaxin-3 B-chain and INSL4 A-chain; mature polypeptide SEQ ID NO:22 (RAAPYGVRLCGREFIRAVIFTCGGSRWFDPFCCEVICDDGTSVKLC; Human Relaxin-3/Insulin-like 4 chimeric mature polypeptide)”: the “binding affinity for LGR8, in words” value with LGR8 is “no binding affinity”. For the same substance, the “binding to LGR7, in words” value with LGR7 (setting [4]) is “inactive”. The “agonist activity at GPCR135, in words” value in the assay with GPCR135 [2] (setting [4]) is given as “stimulated GPCR135 or GPCR142 at the highest concentration (1 μM) tested only”. Besides, the “binding / affinity for GPCR135, in words” value with GPCR135 [1] is reported as “marginal binding at the highest concentration (1 μM)”. In addition, the “agonist activity at GPCR142, in words” value with GPCR142 (setting [4]) is listed as “stimulated GPCR135 or GPCR142 at the highest concentration (1 μM) tested only”.
